Holding throughout (assay type): biochemical, Aspergillus niger
For data set [1], the system named is GluE. As to the kind of experiment: NADH formation followed at […] nm. The following applies: 400 μM NAD+; 50 mM Tris pH 8.
The test system of data set [2] is GluE. Briefly: NADH oxidation followed at […] nm. The following applies: 400 μM NADH; 50 mM Tris pH 7.
Substrate in data set [3]: O=C(O)[C@H](O)[C@@H](O)[C@H](O)[C@@H](O)CO
As to the kind of experiment: purified protein. The following applies: NADP+ as co-substrate (Methods print 400 μM NAD+), 50 mM Tris pH 8.

Substrate in data set [4]: O=C(O)C(=O)[C@@H](O)[C@H](O)[C@@H](O)CO
As to the kind of experiment: purified protein. The conditions noted are these: NADPH as co-substrate (Methods print 400 μM NADH), 50 mM Tris pH 7.

What is called Km is the concentration of substrate that gives half-maximal velocity. The Vmax is the rate approached at saturating substrate. One may read the kcat as the maximal rate divided by the concentration of active sites.

In the case of `O=C(O)[C@H](O)[C@@H](O)[C@H](O)[C@@H](O)CO` [L-idonate], the Km in data set [1] came to 30.9 ± 1.5 mM.
In the case of `O=C(CO)[C@@H](O)[C@H](O)[C@@H](O)C(=O)O` [5-keto-D-gluconate], the Km in data set [2] was found to be 8.4 ± 0.1 mM.

B1: GluD (Aspergillus niger) (protein)
chain: MPAALLIGAITHSMPEWNDLSSILTLKEFPSGTREDFIRNCRDGQYDDVVAIYRSNTSTKFTGPFDAELLSFLPSSLKYIAHNGAGYDNIDVAACTKKGIAVSSTPVAVNNATADVAIFLMIGALRQAYIPVTSLREGKFLGQTGLGHDPQNKVLGILGMGGIGREVARRARAFGMTIQYHNRSRLSPELEDGATYVSFDELLANSDVLSLNLALNASTRHIIGKTEFQKMKDGVIIVNTARGALIDEKALVEALESGKVWSAGLDVYENEPAIEPGLVNNPRVMLLPHIGTMTYETQREMELLVLNNLRSGVETGKMITLVPEQKDVFGK
As for B1, in data set [3], the Km is recorded as 12.6 ± 0.8 mM, the Vmax is 1.7 µmol/min/mg and the kcat came to 1.1 s⁻¹. Moreover, in data set [4], the Km was 25.3 ± 1.2 mM, the Vmax came out at 34.9 µmol/min/mg and the kcat stood at 21.4 ± 0.3 s⁻¹.

The record behind these values is publication PMC5306355, “Clustered Genes Encoding 2-Keto-L-Gulonate Reductase and L-Idonate 5-Dehydrogenase in the Novel Fungal D-Glucuronic Acid Pathway” (Frontiers in Microbiology, 2017).
